Test results published in patent US12540161B2, “Linkers” (BicycleTx Limited, priority 2020, dated 2026).

Columns and labels:
[1] = Plasma stability analysis, mouse plasma; settings: plasma, BTCs
Protocol: Pooled frozen plasma was thawed in a water bath at 37° C. Plasma was centrifuged at 4000 rpm for 5 min and the clots were removed if any. The pH will be adjusted to 7.4±0.1 if required. 1 mM stock solution was prepared with DMSO. Propantheline (positive control) was prepared by making a 100 μM working solution by diluting 5 μL of the stock solution (10 mM) with 495 μL ultra pure water. 100 μM working solutions of test compounds were made up by diluting 10 μL of the stock solution (1 mM) with 90 μL DMSO. 98 μL of blank plasma was spiked with 2 μL of dosing solution (100 μM) to achieve 2 μM of the final concentration in duplicate and samples were incubated at 37° C. in a water bath. […] An aliquot of supernatant (150 μL) was transferred from each well before submitting for LC-MS/MS analysis.
The % remaining test compound after incubation in plasma was calculated using following equation: Remaining=100×(PAR at appointed incubation time/PAR at T0 time)
where PAR is the peak area ratio of analyte versus internal standard (IS).
The half-life (T½) was calculated from a log linear plot of concentration versus time.

Cathepsin B = Cathepsin B (Homo sapiens, UniProt P07858); assay: Cathepsin B (CatB) cleavage assay; format: biochemical; settings: BTCs; for half-life at 40 μM: read-out: CatB t1/2 (converted)
Protocol: 15 μL of test compound solution (2 mM in DMSO) was added to the incubation plate in duplicate. 30 μL of Cathepsin B stock solution (16 μM) was pre-activated with 1500 μL activation buffer for 10 min at room temperature. The Cathepsin B solution was diluted in 13.17 mL water, then 735 μL activatived enzyme mixture was added to the incubation plate. The mixture was incubated at 37° C. in a waterbath. […] The samples were mixed and centrifuged at 4000 rpm for 20 min. 50 μL of supernatant was taken into a new plate containing 150 μL ultra-pure water and the samples mixed thoroughly before submitting to LC-MS/MS analysis.

in vivo [2] = settings: male, CD-1, mouse, plasma, intravenous
Protocol: Male CD-1 mice were dosed with each Bicycle Conjugate formulated in 25 mM histidine HCl, 10% sucrose pH 7 via tail vein injection. Serial bleeding (about 80 μL blood/time point) was performed via submadibular or saphenous vein at each time point. All blood samples were immediately transferred into prechilled microcentrifuge tubes containing 2 μL K2-EDTA (0.5M) as anti-coagulant and placed on wet ice. Blood samples were immediately processed for plasma by centrifugation at approximately 4° C., 3000 g. The precipitant including internal standard (350 μL) was immediately added into the 35 μL plasma sample, mixed well and centrifuged at 3220 g, 4° C. for 15 minutes. The supernatant was transferred into pre-labeled polypropylene microcentrifuge tubes, and then quick-frozen over dry ice. The samples were stored at 70° C. or below as needed until analysis. Supernatant samples were mixed with 50 μL water, vortexed well and centrifuged at 3220 g, 4° C. for 15 minutes. A sample of the supernatant was injected for LC-MS/MS analysis using an Acquity UPLC with AB Sciex 6500+ Triple Quad MS in positive ion mode to determine the concentrations of Bicycle Conjugate and released payload. Plasma concentration versus time data were analyzed by non-compartmental approaches using the Phoenix WinNonlin 6.3 software program. C0, Cl, Vdss, T1/2, AUC(0-inf), MRT(0-last), MRT(0-inf) nd graphs of plasma concentration versus time profile were reported.

in vitro [3] = settings: rat, plasma, pH 7.4
Protocol: (§1) Pooled frozen plasma was thawed in a water bath at 37° C. Plasma was centrifuged at 4000 rpm for 5 min and the clots were removed if any. The pH will be adjusted to 7.4±0.1 if required. 1 mM stock solution was prepared with DMSO. Propantheline (positive control) was prepared by making a 100 μM working solution by diluting 5 μL of the stock solution (10 mM) with 495 μL ultra pure water. 100 μM working solutions of test compounds were made up by diluting 10 μL of the stock solution (1 mM) with 90 μL DMSO. 98 μL of blank plasma was spiked with 2 μL of dosing solution (100 μM) to achieve 2 μM of the final concentration in duplicate and samples were incubated at 37° C. in a water bath. At each time point (0, 1, 2, 4, 6 and 24 hr), 400 μL of 200 ng/mL tolbutamide and labetalol in 100% MeOH was added and mixed thoroughly to precipitate proteins. Sample plates were centrifuged at 4,000 rpm for 15 min. An aliquot of supernatant (150 μL) was transferred from each well before submitting for LC-MS/MS analysis.
(§2) The appointed incubation time points are T0 (0 hr), Tn (n=0, 1, 2, 4, 6, 24 hr). The half-life (T½) was calculated from a log linear plot of concentration versus time.
(§3) When the % remaining value at the maximal incubation time, which was 24 hr in this study, was higher than 75%, it is considered to be within the acceptable experimental variation.

in vitro [4] = settings: human, plasma, pH 7.4
Protocol: as §1, §2, §3

in vitro [5] = settings: mouse, plasma
in vitro [6] = settings: rat, plasma
in vitro [7] = settings: cynomolgus monkey, plasma
in vitro [8] = settings: human, plasma
[9] = rat
in vivo [10] = settings: rat, plasma
[11] = pH 7.4, Mouse plasma t1/2 (EDTA), EDTA anticoagulant
[12] = pH 7.4, Mouse plasma t1/2 (Herparin), heparin anticoagulant
[13] = Plasma protein binding (% Unbound) Rat

| Structure (SMILES) | half-life at 2 μM [1, 11] [h] | half-life at 2 μM [1, 12] [h] | % Parent remaining after incubation with CatB, 0 h (Cathepsin B) [%] | % Parent remaining after incubation with CatB, 1 h (Cathepsin B) [%] | % Parent remaining after incubation with CatB, 2 h (Cathepsin B) [%] | % Parent remaining after incubation with CatB, 4 h (Cathepsin B) [%] | % Parent remaining after incubation with CatB, 6 h (Cathepsin B) [%] | % Parent remaining after incubation with CatB, 24 h (Cathepsin B) [%] | half-life at 40 μM (Cathepsin B) [h] | C0 (in vivo [2]) [ng/mL] | Vd (in vivo [2]) [L/kg] | clearance (in vivo [2]) [mL/min/kg] | half-life (in vivo [2]) [h] | half-life at 2 μM (in vitro [3]) [h] | half-life at 2 μM (in vitro [4]) [h] | fraction unbound (in vitro [5]) | fraction unbound (in vitro [6]; [13]) | fraction unbound (in vitro [7]) | fraction unbound (in vitro [8]) | also measured |
| --- | --- | --- | --- | --- | --- | --- | --- | --- | --- | --- | --- | --- | --- | --- | --- | --- | --- | --- | --- | --- |
| CC[C@H](C)[C@@H]([C@@H](CC(=O)N1CCC[C@H]1[C@H](OC)[C@@H](C)C(=O)N[C@H](C)[C@@H](O)c1ccccc1)OC)N(C)C(=O)[C@@H](NC(=O)[C@H](C(C)C)N(C)C(=O)OCc1ccc(NC(=O)[C@H](CCN)NC(=O)[C@@H](NC(=O)[C@H](CCC(=O)O)NC(=O)Cn2cc(CCC(=O)NCCC(=O)N(C)CC(=O)N(C)CC(=O)N(C)CC(=O)N(C)CC(=O)N(C)CC(=O)N(C)CC(=O)N(C)CC(=O)N(C)CC(=O)N(C)CC(=O)N(C)CC(=O)N[C@@H](C)C(=O)N[C@H]3CN(C)Cc4cc5cc(c4)CN(C)C[C@@H](C(N)=O)NC(=O)[C@H](C(C)(C)C)NC(=O)[C@H](CC(=O)O)NC(=O)[C@H](Cc4ccc(O)cc4)NC(=O)[C@H](Cc4ccccc4)NC(=O)[C@H](CC(=O)O)NC(=O)[C@H](CCC(=O)O)NC(=O)[C@H](CSC5)NC(=O)[C@@H](C)NC(=O)[C@H](Cc4cccc5ccccc45)NC(=O)[C@H](CCC(=O)O)NC(=O)[C@H](CC(N)=O)NC(=O)[C@@H](C)NC3=O)nn2)C(C)C)cc1)C(C)C [BCY10981, MMAE-PAB-(Dab-Val-Glu)-BCY3900] | > 57.8 | > 57.8 | 100 | 0 | 0 | 0 | 0 | 0 | < 0.2 | 30700 | 0.15 | 3.9 | 0.6 | > 57.8 | 73.8 | 0.288 | 0.417 | 0.459 | 0.653 | – |
| CC[C@H](C)[C@@H]([C@@H](CC(=O)N1CCC[C@H]1[C@H](OC)[C@@H](C)C(=O)N[C@H](C)[C@@H](O)c1ccccc1)OC)N(C)C(=O)[C@@H](NC(=O)[C@H](C(C)C)N(C)C(=O)OCc1ccc(NC(=O)[C@H](CCCNC(N)=O)NC(=O)[C@@H](NC(=O)Cn2cc(CCC(=O)NCCC(=O)N(C)CC(=O)N(C)CC(=O)N(C)CC(=O)N(C)CC(=O)N(C)CC(=O)N(C)CC(=O)N(C)CC(=O)N(C)CC(=O)N(C)CC(=O)N(C)CC(=O)N[C@@H](C)C(=O)N[C@H]3CN(C)Cc4cc5cc(c4)CN(C)C[C@@H](C(N)=O)NC(=O)[C@H](C(C)(C)C)NC(=O)[C@H](CC(=O)O)NC(=O)[C@H](Cc4ccc(O)cc4)NC(=O)[C@H](Cc4ccccc4)NC(=O)[C@H](CC(=O)O)NC(=O)[C@H](CCC(=O)O)NC(=O)[C@H](CSC5)NC(=O)[C@@H](C)NC(=O)[C@H](Cc4cccc5ccccc45)NC(=O)[C@H](CCC(=O)O)NC(=O)[C@H](CC(N)=O)NC(=O)[C@@H](C)NC3=O)nn2)C(C)C)cc1)C(C)C [BCY7761, MMAE-PAB-(Cit-Val)-BCY3900, reference compound] | 9.1 | 9.2 | 100 | 33.687 | 15.1 | 4.93 | 1.01 | 0.462 | 0.9 | 24800 | 0.04 | 1 | 0.48 | 56.8 | > 57.8 | 0.173 | 0.106 | 0.187 | 0.211 | half-life at 2 μM ([1]; pH 7.4, Mouse plasma t1/2 expt 2 (EDTA), EDTA anticoagulant, experiment 2): 6.8 h; AUC ratio [9]: 0.00445; half-life (in vivo [10]): 0.49 h; fraction unbound (in vitro [6]; PPB (% Unbound), rat (Table 9)): 0.11 |
